Each block holds one binder with its values, some of them ahead of it.
Assays:
[1] = biological target: T1, 293T-CTLA-4细胞 (human CTLA-4 on 293T cells) (human, UniProt P16410 36-223); assay: FACS on 293T-CTLA-4 cells
T1 construct: whole, on cells; also called 人CTLA-4
T1 sequence (looked up): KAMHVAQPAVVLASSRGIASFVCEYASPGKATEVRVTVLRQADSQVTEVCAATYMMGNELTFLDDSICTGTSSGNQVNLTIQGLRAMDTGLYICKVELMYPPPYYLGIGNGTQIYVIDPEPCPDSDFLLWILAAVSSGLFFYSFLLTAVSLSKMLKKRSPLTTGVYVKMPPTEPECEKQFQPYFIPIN

[2] = biological target: T1, 293T-CTLA-4细胞 (human CTLA-4 on 293T …); assay: competition FACS on 293T-CTLA-4 cells, competitor CD80-biotin; the lowest, tied by Table 8 to 3D2A10
[3] = biological target: T2, CTLA-4-hFc蛋白 (human CTLA-4 fused to human Fc) (human, UniProt P16410 36-161, limits assumed); assay: ELISA, CTLA-4-hFc coated; low end of the group's range, tied by Table 5 to 3D2A10
T2 construct: Coated on ELISA plates; also called CTLA-4-Fc; not shown: human Fc (hFc)
T2 sequence (looked up): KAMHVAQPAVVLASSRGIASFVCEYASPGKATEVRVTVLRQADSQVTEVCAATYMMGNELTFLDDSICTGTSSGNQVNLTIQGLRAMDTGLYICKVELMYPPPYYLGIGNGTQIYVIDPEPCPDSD

[4] = biological target: T2, CTLA-4-hFc蛋白 (human CTLA-4 fused to …); assay: ELISA, CTLA-4-hFc coated
[5] = biological target: T2, CTLA-4-hFc蛋白 (human CTLA-4 fused to …); assay: competition ELISA, CTLA-4-hFc coated, competitor CD80-biotin
[6] = biological target: T2, CTLA-4-hFc蛋白 (human CTLA-4 fused to …); assay: competition ELISA, CTLA-4-hFc coated, competitor CD80-biotin; the lowest, tied by Table 6 to 3D2A10
[7] = biological target: T1, 293T-CTLA-4细胞 (human CTLA-4 on 293T …); assay: competition FACS on 293T-CTLA-4 cells, competitor CD80-biotin
[8] = biological target: T1, 293T-CTLA-4细胞 (human CTLA-4 on 293T …); assay: FACS on 293T-CTLA-4 cells; the lowest, tied by Table 7 to 10F8D1

EC50 [1]: 0.0788 µg/mL | IC50 [2]: < 0.7 µg/mL | EC50 [3]: 0.001 µg/mL | EC50 [4]: 0.0012 µg/mL | IC50 [5]: 0.352 µg/mL | IC50 [6]: < 0.36 µg/mL | IC50 [7]: 0.696 µg/mL
B1: 3D2A10人源化抗体 (humanized CTLA-4 antibody 3D2A10, IgG1) (antibody, V domains shown)
VH: QVTLKESGPVLVKPTETLTLTCTVSGFSLTNYAVHWIRQPPGKALEWLGVIWSGGYIDYNAVFISRLTISKDNSKSQAVLTMTNMDPVDTATYYCARSGETGTYYFDYWGQGTLVTVSS
VL: EIVMTQSPATLSVSPGERATLSCRASENIYSYLAWYQQKPGQAPRLLVYSATKLANGIPARFSGSGSGTEYTLTISSLQSEDFAVYYCQHFWGTPWTFGGGTKVEIKR
notes: Humanized by CDR grafting with back mutations, built as IgG1, made in 293 cells; also called 人源化CTLA-4抗体3D2A10

EC50 [1]: 0.0231 µg/mL | EC50 [4]: 0.00149 µg/mL | IC50 [5]: 0.388 µg/mL | IC50 [7]: 1.66 µg/mL | EC50 [8]: < 0.024 µg/mL
B2: 10F8D1人源化抗体 (humanized CTLA-4 antibody 10F8D1, IgG1) (antibody, V domains shown)
VH: QVQLVQSGAEVKKPGASVKVSCKASGYTFTNYWMHWVRQAPGQGLEWIGYINPTTTYTNYNQKFKDRATLTADKSISTAYMELSRLRSDDTAVYYCATTAQATGYGMDFWGQGTLVTVSS
VL: DIVMTQSPDSLAVSLGERATINCKSTQSLLNSGNQRNYLTWYQQKPGQPPKLLIYWASTRESGVPDRFSGSGSGTDFTLTISSLQAEDVAVYYCQNDYSFPLTFGQGTKLEIKR
notes: Humanized by CDR grafting with back mutations, built as IgG1, made in 293 cells; also called 人源化CTLA-4抗体10F8D1
